Measured values as given in publication PMC3849214.

Test system: c1ccc([C@H]2CO2)cc1
Test: colorimetric periodate-coupled diol assay, A290, steady state
Assay type: biochemical, Streptomyces globisporus
Conditions: pH 8.0, 50 mM sodium phosphate, 25 °C, 3 mM sodium periodate

SgcF (Streptomyces globisporus; Q237M)
Km: 4.1 ± 0.8 mM
kcat/Km: 780 M⁻¹ s⁻¹
